US20100047243A1 (published 2010)

Target: T1, recombinant cynomolgus macaque IGF-1R (IGF-1R-Fc fusion protein of Example 4) (cynomolgus macaque (Macaca fascicularis))
T1 construct: also called Cynomolgus IGF-1R; cyno IGF-1R
Test: Biacore T100, antibody captured on Protein A, recombinant cynomolgus IGF-1R analyte (256-16 nM), HBS-EP, 37 C
Procedure: Protein A was immobilised on a CM5 surface by primary amine coupling in accordance with the manufacturers standard protocols. Antibodies against IGF-1R were captured on this surface and after a period of stabilisation recombinant human or cynomolgus IGF-1R was injected over this captured surface. […] Data was analysed using the 1:1 model inherent to the Biacore machine, the work was carried out on the T100 using HBS-EP running buffer at 37° C.

T1 sequence (chain, as listed by the source limits assumed): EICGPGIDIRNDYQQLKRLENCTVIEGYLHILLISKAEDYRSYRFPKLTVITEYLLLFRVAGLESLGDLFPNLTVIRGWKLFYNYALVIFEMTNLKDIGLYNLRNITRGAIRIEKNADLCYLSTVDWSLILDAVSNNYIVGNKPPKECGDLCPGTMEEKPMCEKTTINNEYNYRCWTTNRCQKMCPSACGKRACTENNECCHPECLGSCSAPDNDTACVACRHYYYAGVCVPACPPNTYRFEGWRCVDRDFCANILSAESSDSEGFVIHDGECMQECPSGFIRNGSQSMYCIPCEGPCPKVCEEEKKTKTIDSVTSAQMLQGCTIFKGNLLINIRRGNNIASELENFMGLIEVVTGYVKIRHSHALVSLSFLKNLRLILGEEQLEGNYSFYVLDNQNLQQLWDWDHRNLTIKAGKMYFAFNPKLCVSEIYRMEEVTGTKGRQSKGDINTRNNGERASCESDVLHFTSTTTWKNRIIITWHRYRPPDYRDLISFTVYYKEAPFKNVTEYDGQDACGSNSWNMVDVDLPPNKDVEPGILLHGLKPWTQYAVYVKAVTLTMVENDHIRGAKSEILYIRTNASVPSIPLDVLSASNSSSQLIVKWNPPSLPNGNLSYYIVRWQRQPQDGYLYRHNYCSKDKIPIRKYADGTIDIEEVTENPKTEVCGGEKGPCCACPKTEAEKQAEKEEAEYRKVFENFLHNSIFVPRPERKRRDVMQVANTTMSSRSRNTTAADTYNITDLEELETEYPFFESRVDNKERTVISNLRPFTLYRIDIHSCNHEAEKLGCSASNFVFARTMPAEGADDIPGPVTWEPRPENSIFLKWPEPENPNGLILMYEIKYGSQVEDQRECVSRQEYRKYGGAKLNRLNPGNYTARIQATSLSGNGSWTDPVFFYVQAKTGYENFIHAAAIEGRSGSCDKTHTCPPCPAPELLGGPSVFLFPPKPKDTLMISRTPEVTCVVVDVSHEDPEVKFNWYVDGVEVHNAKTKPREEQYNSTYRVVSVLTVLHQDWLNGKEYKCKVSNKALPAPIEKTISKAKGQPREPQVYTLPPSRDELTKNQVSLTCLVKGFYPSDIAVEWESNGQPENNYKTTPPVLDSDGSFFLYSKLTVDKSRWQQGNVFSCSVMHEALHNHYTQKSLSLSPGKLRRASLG

B1: 6E11 chimeric antibody (antibody, human IgG1, kappa, V domains shown)
VH: EVQLQQSGPELVKPGASVRISCKASGYAFTDYYMNWVKQSHGKSLEWVANINPNNGGTNYNQKFKDKATLTVDKSSNTAYMELRSLTSEDTAVYYCARWILYYGRSKWYFDVWGTGTLVTVSS
VL: DVLMTQTPLSLPVSLGDHASISCRSSQSIVQSNGDTYLEWYLQKPGQSPKLLIYRISNRFSGVPDRFSGSGSGTDFTLKISRVEAEDLGVYYCFQGSHVPYTFGGGTKLEIKR
notes: Murine 6E11 variable domains on human IgG1/kappa wild type constant regions; also called 6E11 chimera; 6E11 chimaera
Kd: 0.19 nM
